Earlier results as cited in PMC3429939.

Molecular target: galectin-1 CRD (Homo sapiens) (UniProt P09382)

Kd: 7 µM
Substance: galectin-1 CRD (from UniProt P09382)
